{"source": "paper PMC10992614", "about": "“Construction and optimization of a biocatalytic route for the synthesis of neomenthylamine from menthone” (Bioresources and Bioprocessing, 2023)", "molecules": {"B1": {"name": "ω-transaminase from Vibrio fluvialis JS17 (VfTA) (Vibrio fluvialis) (protein)", "chain": "MNKPQSWEARAETYSLYGFTDMPSLHQRGTVVVTHGEGPYIVDVNGRRYLDANSGLWNMVAGFDHKGLIDAAKAQYERFPGYHAFFGRMSDQTVMLSEKLVEVSPFDSGRVFYTNSGSEANDTMVKMLWFLHAAEGKPQKRKILTRWNAYHGVTAVSASMTGKPYNSVFGLPLPGFVHLTCPHYWRYGEEGETEEQFVARLARELEETIQREGADTIAGFFAEPVMGAGGVIPPAKGYFQAILPILRKYDIPVISDEVICGFGRTGNTWGCVTYDFTPDAIISSKNLTAGFFPMGAVILGPELSKRLETAIEAIEEFPHGFTASGHPVGCAIALKAIDVVMNEGLAENVRRLAPRFEERLKHIAERPNIGEYRGIGFMWALEAVKDKASKTPFDGNLSVSERIANTCTDLGLICRPLGQSVVLCPPFILTEAQMDEMFDKLEKALDKVFAEVA"}}, "key": {"[1]": {"target": "T1, ω-transaminase from Vibrio fluvialis JS17 (VfTA) (Vibrio fluvialis, UniProt F2XBU9)", "T1 sequence (F2XBU9 1-453)": "B1 chain", "experiment": "enzyme kinetics (GC assay), product inhibition of VfTA", "type": "biochemical"}, "[2]": {"target": "T1, ω-transaminase from Vibrio fluvialis JS17 (VfTA)", "experiment": "product formation by purified VfTA (GC); no product inhibition detected", "type": "biochemical"}, "purified protein": {"substrate": "C[C@H](N)c1ccccc1", "experiment": "purified protein", "type": "biochemical, Vibrio fluvialis", "details": "pyridoxal-5'-phosphate (PLP)"}, "[3]": {"substrate": "CC(C)[C@@H]1CC[C@@H](C)CC1=O", "experiment": "steady-state kinetics with purified VfTA (KM, GC assay)", "type": "biochemical, Vibrio fluvialis", "details": "pyridoxal-5'-phosphate (PLP)"}}}
{"molecule": "CC(=O)c1ccccc1", "note": "[Acetophenone]", "values": [{"measurement": "Ki", "setting": "[1]", "result": 600, "unit": "µM"}]}
{"molecule": "CC(C)[C@@H]1CC[C@@H](C)C[C@@H]1N", "note": "[(+)-neomenthylamine]", "values": [{"measurement": "product formation by purified VfTA (GC); no product inhibition detected", "setting": "[2]", "result": "transaminase (VfTA) from Vibrio fluvialis JS17 (PDB: 5ZTX) that can convert (−)-menthone into (+)-neomenthylamine successfully"}]}
{"molecule": "B1", "values": [{"measurement": "Km", "setting": "purified protein", "result": "800 ± 100", "unit": "µM"}, {"measurement": "kcat/Km", "setting": "purified protein", "result": 54400, "unit": "M⁻¹ s⁻¹"}, {"measurement": "Km", "setting": "[3]", "result": "5000 ± 600", "unit": "µM"}, {"measurement": "kcat/Km", "setting": "[3]", "result": 3300, "unit": "M⁻¹ s⁻¹"}]}
